Test results: patent US20260014211

Columns and labels:
[1] = tested on: His-BcpT (recombinant N-terminal His-tagged BcpT without signal sequence)

doripain B (DpnB) was tested, and the “cleavage of BcpT site mutant (Western immunoblot)” value (His-BcpT R199N) was “both proteases can cleave BcpT^R199N at the R65 site, which FXa does not” and the “cleavage and activation of BcpT (Coomassie gel, agar overlay)” value [1] was “The active forms of both proteases cleave and activate BcpT”.

“doripain A, full-length recombinant proenzyme (not trypsin treated)” was tested, and the “activation of BcpT (Coomassie gel, agar overlay)” value [1] was “DpnA remains full-length and cannot activate BcpT”.

In the case of Factor Xa, the “cleavage by FXa (Coomassie gel)” value (His-BcpT R199N) is reported as “are not cleaved by FXa (other than releasing the His-tag)”, the “cleavage of His-tagged BcpT (Coomassie gel, N-terminal sequencing of fragments)” value [1] is reported as “FXa cleaves after R65 and R199 of two Leu-Thr-Arg (LTR) motifs” and the “cleavage by FXa (Coomassie gel)” value (His-BcpT R65N) is reported as “is cleaved only at the R199 site”. For the same substance, the “cleavage by FXa (Coomassie gel)” value (His-BcpT R65N:R199N) was “are not cleaved by FXa (other than releasing the His-tag)”.

For “doripain A activated with trypsin, DpnA(a)”, the “cleavage of BcpT site mutant (Western immunoblot)” value (His-BcpT R199N) was “both proteases can cleave BcpT^R199N at the R65 site, which FXa does not” and the “cleavage and activation of BcpT (Coomassie gel, agar overlay)” value [1] was “The active forms of both proteases cleave and activate BcpT”.
